Experimental findings from patent publication US20090291088A1 (Biogen, published 2009) are described below.

Bounds are passed on as bounds.

The target of experiment [1] is T1, human IGF-1R expressed on cells (human, UniProt P08069 31-1367).
T1 construct: On MCF-7 tumor cells or on 3T3/CHO transfectants; precursor is processed into alpha and beta subunits; Signal peptide 1-30 left out as stated; also called wild type IGF-1R; IGF-1R 3T3
The experiment is described as follows: flow cytometry, MCF-7 cells. The protocol:
The ability of Fabs to bind to the wild type IGF-1R was determined by flowcytometry using MCF-7 tumor cell line.
MCF-7 cells (Human Breast Adenocarcinoma from NCI) were split 24 hours prior to the setup of the assay to obtain 70% confluent monolayer. Routinely, MCF-7 cell line was maintained within 20 passages. Cells were lifted with cell dissociation buffer (Gibco catalog #13151-014), counted, washed and adjusted to 1×10⁶ cells/ml and one ml of cells were then added to each tube (12×75 mm tube Falcon catalog# 352054). Cells were pelleted and supernatant removed by centrifugation at 1200 rpm for 5 min and 100 μl of diluted antibodies were then added to the cell pellet. Purified Fabs were tested at a starting concentration of either 210 or 60 μg/ml with 1:3 dilutions in FACS buffer, down to 0.001 μg/ml. FACS buffer used throughout the assay was PBS (without Ca++/Mg++) containing 1% BSA (Sigma catalog# A-7906; Sigma-Aldrich Corp. (St. Louis, Mo., USA)) and 0.1% Sodium Azide (Sigma catalog #S2002). […] Samples were allowed to incubate on ice for 1 hour and 15 minutes then were washed with 2 ml FACS buffer and centrifuged at 1200 rpm for 5 minutes at 4° C. The supernatant was aspirated and 100 μl of the secondary detection antibody was added to each corresponding tube in FACS buffer. Samples were then incubated for 30 minutes on ice, in the dark. Cells were washed as described above, then, re-suspended in […] FACS buffer per tube/sample.
Cells were stained for live cell determination with Propidium Iodide staining solution (PI for dead cell exclusion; BD Pharmingen catalog# 51-66211E or 556463; use at 1:500 final in FACS buffer). Samples were run on the FACSCalibur instrument (Becton Dickinson) with 10,000 live events collected per sample.

Experiment [2] has as its target T2, human INSR(28-956)-His10 (human, UniProt P06213 28-956).
T2 construct: range 28-956; Bought (R&D Systems 1544-IR); also called rh-INSR; soluble insulin receptor
The experiment is described as follows: ELISA, plate coated with rh-INSR. The protocol:
(§1) ELISA assays were performed to determine specific binding of the Fab fragment antibodies to soluble IGF-1R over the insulin receptor. […] Color development was stopped by addition of 4NH₂SO₄ and optical density is measured at 450 nm using a Molecular Devices plate reader and binding curves are generated.

The target in experiment [3] is T3, human IGF-1R(1-902)-His10 (human, UniProt P08069 31-932).
T3 construct: Cy5-labelled in tr-FRET; also called hIGF-1R-His10; IGF-1R-His
The experiment is described as follows: ELISA, plate coated with rh-IGF-1R, bound Fab detected with anti-human kappa-HRP. The protocol:
as §1

The target of experiment [4] is T3, human IGF-1R(1-902)-His10. Nature of the experiment: SPR, antibody over captured IGF-1R-10His. The protocol:
All surface plasmon resonance (SPR) experiments were performed on a Biacore 3000 set to 25° C. using HBS-EP (Biacore, Cat. No. BR-1001-88) as the running buffer. A biotin-labeled anti-HisTag antibody (biotin-PENTA-His, Qiagen Cat. No. 34440) was immobilized to saturation on a Biacore SA chip (Cat. No. BR-1000-32) surface by injection at 500 nM in HBS-EP buffer. […] Subsequent to IGF-1R injections, flow rates were increased to 20 μL/min. A second, 130 μL injection of anti-IGF-1R antibody or Fab was performed to investigate interactions with the receptor. Each antibody and Fab was serially diluted from 64 nM to 0.5 nM to obtain concentration dependent kinetic binding curves. Each injection series was regenerated using 3×10 μL injections of 10 mM Acetate, pH 4.0, at 20 μL/min. Each curve was double referenced using (1) data obtained from a streptavidin surface devoid of IGF-1R and (2) data from a primary injection of IGF-1R followed by a secondary injection of HBS-EP buffer. The concentration series for each antibody and Fab was fit to the 1:1 binding model provided within the BiaEvaluation software of the manufacturer.
The rates at which the antibodies accumulate on the IGF-1R coated surface when applied at various concentrations as well as the rates at which they dissociated during applications of pure buffer were investigated by fitting the data to a 1:1 binding model. Approximate kinetic rate constants and equilibrium dissociation constant were calculated (Table 14).

For experiment [5], the target named is T4, human IGF-1R(1-903)-Fc (human, UniProt P08069 31-933).
T4 construct: Made by Biogen Idec; Multimerises through IGF-1R and Fc; also called hIGF-1R-Fc; IGF-1R-Fc; not shown: C-terminal human IgG1-Fc tag
Nature of the experiment: ELISA, plate coated with soluble IGF-1 receptor Fc fusion protein, detection with anti-human kappa-HRP. The protocol: The plate was washed with phosphate-buffered saline (PBS, Irvine Scientific, Cat#9240), pH 7.4 plus 0.025% Tween 20 in the Skan Washer 300 (Skatron Instruments), blocked with buffer containing 1% nonfat milk, 0.05% Tween 20 in PBS, pH 7.4, and then incubated at room temperature for 1 hour. After incubation plate was washed with PBS plus 0.025% Tween 20 in the Skan Washer 300. […] Following a one hour incubation at room temperature, plate was washed with PBS plus 0.025% Tween 20 in the Skan Washer 300. […] Plate incubated for 1 hour at room temperature was washed with PBS plus 0.025% Tween 20 in the Skan Washer 300. […] The absorbance was measured at 450 nm, background 540 nm for TMB using the Molecular Devices plate reader. Data was analyzed using the SOFTMAX PRO software package version 4.3 LS (Molecular Devices Corp.).

Experiment [6] addresses T1, human IGF-1R expressed on cells. The experiment is described as follows: cell-based or functional assay.
Experiment [7] concerns the target T4, human IGF-1R(1-903)-Fc. The experiment is described as follows: ELISA on hIGF-1R-Fc, competitor biotinylated M13-C06.
For experiment [8], the target named is T5, murine IGF-1R expressed on cells (mouse, UniProt Q60751 31-1373).
T5 construct: whole, on cells; also called mouse IGF-1R
The experiment is described as follows: binding to CHO transfectants.

Experiment [9] deals with T4, human IGF-1R(1-903)-Fc. Nature of the experiment: competition ELISA: biotinylated hIGF-1R-Fc on streptavidin plate, 320 nM human IGF-1 His, detection with anti-His-HRP; blocked ligand human IGF-1 His. The protocol:
hIGF-1R-Fc was biotinylated using EZ-Link Sulfo-NHS-LC-Biotin according to the protocol provided by the manufacturer (Pierce Cat. No. 21335). Biotinylated human IGF-1R-Fc at 5 μg/ml was added to the wells of SigmaScreen streptavidin-coated 96-well plates (Sigma, Cat. No. M5432-5EA; Sigma-Aldrich Corp. (St. Louis, Mo., USA)) at 100 μL/well and incubated overnight at 2-8° C. The plates were then washed four times with 200 μL/well PBST. […] The dilutions were added to the plates in duplicate at 100 μL/well and the plates were incubated at RT for 1 hour. The plates were then washed four times with 200 μL/well PBST. An HRP-conjugated anti-Histag antibody (Penta-His HRP Conjugate, QIAGEN, Cat. No. 1014992) was diluted 1:1000 in PBST and added to plates at 100 μL/well, and the plates were incubated at RT for one hour. The plates were then washed four times with 200 μL/well PBST. SureBlue Reserve TMB Microwell Peroxidase Substrate (KPL, Cat. No. 53-00-01) was added to plates at 100 μL/well followed by 1% phosphoric acid at 100 μL/well once the desired reaction was observed. The absorbance of each well was determined at 450 nm, and the results were normalized and plotted against the log of antibody concentration.

In experiment [10] the target is T6, Rhesus IGF-1R expressed on CHO cells (rhesus monkey, UniProt I2CWY3 31-1367).
T6 construct: whole, on cells; also called Rhesus IGF-1R/CHO
Nature of the experiment: flow cytometry and confocal microscopy, CHO transfectants.

For experiment [11], the target named is T4, human IGF-1R(1-903)-Fc. Nature of the experiment: competition ELISA: biotinylated hIGF-1R-Fc on streptavidin plate, 320 nM human IGF-2 His, detection with anti-His-HRP; blocked ligand human IGF-2 His.
The target in experiment [12] is T2, human INSR(28-956)-His10. The experiment is described as follows: ELISA on coated rh-INSR. The protocol: as §1

T5 sequence (Q60751 31-1373): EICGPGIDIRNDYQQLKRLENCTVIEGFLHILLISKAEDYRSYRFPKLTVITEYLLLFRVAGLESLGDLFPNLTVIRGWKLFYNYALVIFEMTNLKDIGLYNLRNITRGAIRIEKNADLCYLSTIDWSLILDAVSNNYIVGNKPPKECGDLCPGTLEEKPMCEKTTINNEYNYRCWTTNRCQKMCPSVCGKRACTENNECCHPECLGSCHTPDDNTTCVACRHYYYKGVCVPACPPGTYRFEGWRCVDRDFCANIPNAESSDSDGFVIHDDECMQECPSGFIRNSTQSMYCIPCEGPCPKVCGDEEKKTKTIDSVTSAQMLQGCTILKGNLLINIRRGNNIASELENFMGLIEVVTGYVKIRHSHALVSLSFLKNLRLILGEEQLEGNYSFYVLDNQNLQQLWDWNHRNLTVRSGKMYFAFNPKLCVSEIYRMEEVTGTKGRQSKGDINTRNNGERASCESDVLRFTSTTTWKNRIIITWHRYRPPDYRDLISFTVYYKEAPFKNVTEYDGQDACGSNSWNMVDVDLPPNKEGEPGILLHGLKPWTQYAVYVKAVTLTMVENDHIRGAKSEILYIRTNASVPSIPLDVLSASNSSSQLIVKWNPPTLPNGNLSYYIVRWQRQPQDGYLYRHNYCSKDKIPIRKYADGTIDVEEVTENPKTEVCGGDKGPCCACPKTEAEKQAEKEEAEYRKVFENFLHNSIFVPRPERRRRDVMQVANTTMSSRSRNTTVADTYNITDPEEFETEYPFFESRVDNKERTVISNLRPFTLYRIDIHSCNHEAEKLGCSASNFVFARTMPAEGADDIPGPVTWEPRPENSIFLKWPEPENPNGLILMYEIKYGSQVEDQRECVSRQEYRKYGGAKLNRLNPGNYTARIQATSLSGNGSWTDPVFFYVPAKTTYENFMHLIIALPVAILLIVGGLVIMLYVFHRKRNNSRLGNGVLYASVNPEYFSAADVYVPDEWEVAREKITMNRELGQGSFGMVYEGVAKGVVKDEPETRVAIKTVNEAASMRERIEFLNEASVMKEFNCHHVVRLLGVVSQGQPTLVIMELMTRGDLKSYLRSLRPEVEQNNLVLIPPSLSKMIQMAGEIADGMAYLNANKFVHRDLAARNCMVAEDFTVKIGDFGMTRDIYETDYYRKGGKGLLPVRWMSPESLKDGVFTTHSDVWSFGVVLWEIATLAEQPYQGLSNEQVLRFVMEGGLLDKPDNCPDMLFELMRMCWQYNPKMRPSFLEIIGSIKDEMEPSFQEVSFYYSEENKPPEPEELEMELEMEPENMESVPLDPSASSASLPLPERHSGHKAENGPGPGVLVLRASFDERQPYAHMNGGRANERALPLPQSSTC
T6 sequence (I2CWY3 entry or part of it): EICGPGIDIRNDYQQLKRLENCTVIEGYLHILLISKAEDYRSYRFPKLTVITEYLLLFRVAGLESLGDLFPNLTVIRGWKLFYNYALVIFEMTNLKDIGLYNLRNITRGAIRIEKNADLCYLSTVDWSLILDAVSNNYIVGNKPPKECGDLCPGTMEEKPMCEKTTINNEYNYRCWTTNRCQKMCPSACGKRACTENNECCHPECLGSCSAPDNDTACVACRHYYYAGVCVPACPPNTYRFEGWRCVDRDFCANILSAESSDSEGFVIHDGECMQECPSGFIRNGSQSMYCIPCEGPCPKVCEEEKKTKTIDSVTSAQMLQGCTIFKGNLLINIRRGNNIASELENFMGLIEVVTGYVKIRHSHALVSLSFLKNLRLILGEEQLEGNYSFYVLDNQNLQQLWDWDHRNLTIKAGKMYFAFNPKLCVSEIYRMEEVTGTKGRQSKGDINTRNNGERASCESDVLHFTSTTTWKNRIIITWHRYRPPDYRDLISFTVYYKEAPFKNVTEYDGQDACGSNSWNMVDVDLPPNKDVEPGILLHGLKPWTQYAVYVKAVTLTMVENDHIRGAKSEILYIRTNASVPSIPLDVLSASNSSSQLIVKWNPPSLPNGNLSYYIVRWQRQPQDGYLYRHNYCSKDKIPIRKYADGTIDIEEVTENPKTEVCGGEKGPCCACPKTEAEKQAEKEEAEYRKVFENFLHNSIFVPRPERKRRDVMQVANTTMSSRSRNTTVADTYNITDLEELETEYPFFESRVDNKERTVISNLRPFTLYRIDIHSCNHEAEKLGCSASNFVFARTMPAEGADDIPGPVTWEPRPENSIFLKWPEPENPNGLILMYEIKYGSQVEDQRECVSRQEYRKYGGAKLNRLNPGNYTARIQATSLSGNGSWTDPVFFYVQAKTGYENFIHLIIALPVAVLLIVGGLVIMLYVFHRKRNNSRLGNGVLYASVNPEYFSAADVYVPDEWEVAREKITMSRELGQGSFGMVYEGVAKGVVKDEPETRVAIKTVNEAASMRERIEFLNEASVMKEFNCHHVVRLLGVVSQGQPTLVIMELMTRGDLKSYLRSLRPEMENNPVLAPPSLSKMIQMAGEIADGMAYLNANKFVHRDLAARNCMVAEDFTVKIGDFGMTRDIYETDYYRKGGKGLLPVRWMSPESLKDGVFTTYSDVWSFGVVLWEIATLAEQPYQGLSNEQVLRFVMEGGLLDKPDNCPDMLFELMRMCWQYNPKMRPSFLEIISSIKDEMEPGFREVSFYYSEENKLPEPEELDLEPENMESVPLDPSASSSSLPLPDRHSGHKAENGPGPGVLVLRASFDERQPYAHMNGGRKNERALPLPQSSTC

B1: M14-B01 Fab (Fab, V domains shown)
VH: EVQLLESGGGLVQPGGSLRLSCAASGFTFSNYHMAWVRQAPGKGLEWVSVISPTGGRTTYADSVKGRFTISRDNSKNTLYLQMNSLRAEDTATYYCARAGYSYGYGYFDYWGQGTLVTVSS
VL: DIQMTQFPATLSVSPGERATLSCRASQSVMRNLAWYQQKPGQPPRLLIYGASKRATGIPARFSGSGSGTAFTLTISNLEPEDFAVYYCHQRSTWPLGTFGPGTKLEAK
notes: Human phage Fab, kappa
B1: the response in [1] was half-maximal at 29.4 nM (EC50). In addition, the binding result in [2] is recorded as “no binding (tested: about 20000 nM)”. For the same molecule, in experiment [3], the “EC50 (read off the curve)” value is ~6 nM.

B2: M14-C03.G4.P.agly (antibody, human IgG4 S228P, kappa, V domains shown)
VH: EVQLLESGGGLVQPGGSLRLSCAASGFTFSKYMMSWVRQAPGKGLEWVSYISPSGGLTWYADSVKGRFTISRDNSKNTLYLQMNSLRAEDTAVYYCARDGARGYGMDVWGQGTTVTVSS
VL: DIQMTQSPATLSLSPGERATLSCRASQSVSSYLAWYQQKPGQAPRLLIYDASNRATGIPARFSGSGSGTDFTLTISSLEPEDFAVYYCQQRSNWPPEVTFGPGTKVDIKR
notes: Full-length human aglycosylated IgG4.P, kappa; Places that say only 'M14-C03 antibody' were assigned to this version; also called M14-C03_Ab
Regarding B2, in experiment [4], the Kd is 0.36 nM, the koff was found to be 0.0002 s⁻¹ and the kon came to 570000 M⁻¹ s⁻¹. Further, in [5], the “EC50 (read off the curve)” value is ~0.07 nM. Besides, the “inhibition of IGF-1 and IGF-2 mediated IGF-1R receptor phosphorylation (EC50)” value in experiment [6] is < 1 nM. The “percent competition (relative to self-competition)” value in experiment [7] lay within 90 to 100%. In addition, in experiment [8], the binding result was “binds”. Also, the “IC50 (read off the curve)” value in experiment [9] is ~5 nM. Also, the binding result in [10] is “binds”. For the same molecule, the “IC50 (read off the curve)” value in experiment [11] is ~1 nM.

B3: M12-E01 Fab (Fab, V domains shown)
VH: EVQLLESGGGLVQPGGSLRLSCAASGFTFSPYSMLWVRQAPGKGLEWVSSIGSSGGSTRYADSVKGRFTISRDNSKNTLYLQMNSLRAEDTAMYYCARVRGILHYDILIGRNLYYYYMDVWGKGTTVTVSS
VL: QYELTQPPSVSEAPRQRVTISCSGSSSNIGNNAINWYQQLPGKPPKLLIYYDDLLPSGVSDRFSGSKSGTSGSLAISGLQSEDEADYYCAAWDDNLNGVIFGGGTKLTVL
For B3, the binding result in experiment [12] was “no binding (tested: 2 µM-0.2 nM)”.
